Source: patent US20210388087A1 (Chugai, published 2021)
Residue numbers refer to the chain shown, from its start. Names may count otherwise.

B1: H183/L072 VL R54D (antibody, name in Kabat numbering, V domains shown)
VH: QVQLVESGGGLVQPGRSLRLSCAASGFTFSNAWMHWVRQAPGKGLEWVAQIKDKGNAYAAYYAPSVKGRFTISRDDSKNSIYLQMNSLKTEDTAVYYCHYVHYASASTVLPAFGVDAWGQGTTVTVSS
VL: DIVMTQSPLSLPVTPGEPASISCQASQELVHMNRNTYLHWYQQKPGQAPRLLIYKVSNDFPGVPDRFSGSGSGTDFTLKISRVEAEDVGVYYCAQGTSVPFTFGQGTKLEIK
B2: H183/L072 VL S52I (antibody, name in Kabat numbering, V domains shown)
VH: B1 VH
VL: B1 VL with S57I, D59R
B3: H183/L072 VL S26W (antibody, name in Kabat numbering, V domains shown)
VH: B1 VH
VL: B1 VL with S26W, D59R
B4: H183/L072 VL S52M (antibody, name in Kabat numbering, V domains shown)
VH: B1 VH
VL: B1 VL with S57M, D59R
B5: H183/L072 VL R54Q (antibody, name in Kabat numbering, V domains shown)
VH: B1 VH
VL: B1 VL with D59Q
B6: H183/L072 VL S26F (antibody, name in Kabat numbering, V domains shown)
VH: B1 VH
VL: B1 VL with S26F, D59R
B7: H183/L072 VL S26K (antibody, name in Kabat numbering, V domains shown)
VH: B1 VH
VL: B1 VL with S26K, D59R
B8: H183/L072 VL S26R (antibody, name in Kabat numbering, V domains shown)
VH: B1 VH
VL: B1 VL with S26R, D59R
B9: H183/L072 VL R54P (antibody, name in Kabat numbering, V domains shown)
VH: B1 VH
VL: B1 VL with D59P
B10: H183/L072 VL S52K (antibody, name in Kabat numbering, V domains shown)
VH: B1 VH
VL: B1 VL with S57K, D59R
B11: H183/L072 VL S26I (antibody, name in Kabat numbering, V domains shown)
VH: B1 VH
VL: B1 VL with S26I, D59R
B12: H183/L072 VL S52F (antibody, name in Kabat numbering, V domains shown)
VH: B1 VH
VL: B1 VL with S57F, D59R
B13: H183/L072 VL S52L (antibody, name in Kabat numbering, V domains shown)
VH: B1 VH
VL: B1 VL with S57L, D59R
B14: H183/L072 VL S52G (antibody, name in Kabat numbering, V domains shown)
VH: B1 VH
VL: B1 VL with S57G, D59R
B15: H183/L072 VL S26G (antibody, name in Kabat numbering, V domains shown)
VH: B1 VH
VL: B1 VL with S26G, D59R
B16: H183/L072 VL S52D (antibody, name in Kabat numbering, V domains shown)
VH: B1 VH
VL: B1 VL with S57D, D59R
B17: H183/L072 VL S26T (antibody, name in Kabat numbering, V domains shown)
VH: B1 VH
VL: B1 VL with S26T, D59R
B18: H183/L072 VL S26L (antibody, name in Kabat numbering, V domains shown)
VH: B1 VH
VL: B1 VL with S26L, D59R
B19: H183/L072 VL S26M (antibody, name in Kabat numbering, V domains shown)
VH: B1 VH
VL: B1 VL with S26M, D59R
B20: H183/L072 VL S52Q (antibody, name in Kabat numbering, V domains shown)
VH: B1 VH
VL: B1 VL with S57Q, D59R
B21: H183/L072 VL S52A (antibody, name in Kabat numbering, V domains shown)
VH: B1 VH
VL: B1 VL with S57A, D59R
B22: H183/L072 VL R54G (antibody, name in Kabat numbering, V domains shown)
VH: B1 VH
VL: B1 VL with D59G
B23: H183/L072 VL R54L (antibody, name in Kabat numbering, V domains shown)
VH: B1 VH
VL: B1 VL with D59L
B24: H183/L072 VL S26V (antibody, name in Kabat numbering, V domains shown)
VH: B1 VH
VL: B1 VL with S26V, D59R
B25: H183/L072 VL R54T (antibody, name in Kabat numbering, V domains shown)
VH: B1 VH
VL: B1 VL with D59T
B26: H183/L072 VL R54F (antibody, name in Kabat numbering, V domains shown)
VH: B1 VH
VL: B1 VL with D59F
B27: H183/L072 VL S52H (antibody, name in Kabat numbering, V domains shown)
VH: B1 VH
VL: B1 VL with S57H, D59R
B28: H183/L072 VL S26H (antibody, name in Kabat numbering, V domains shown)
VH: B1 VH
VL: B1 VL with S26H, D59R
B29: H183/L072 VL S26Y (antibody, name in Kabat numbering, V domains shown)
VH: B1 VH
VL: B1 VL with S26Y, D59R
B30: H183/L072 VL R54W (antibody, name in Kabat numbering, V domains shown)
VH: B1 VH
VL: B1 VL with D59W
B31: H183/L072 VL R54S (antibody, name in Kabat numbering, V domains shown)
VH: B1 VH
VL: B1 VL with D59S
B32: H183/L072 VL R54H (antibody, name in Kabat numbering, V domains shown)
VH: B1 VH
VL: B1 VL with D59H
B33: H183/L072 VL S52N (antibody, name in Kabat numbering, V domains shown)
VH: B1 VH
VL: B1 VL with S57N, D59R
B34: H183/L072 VL S26E (antibody, name in Kabat numbering, V domains shown)
VH: B1 VH
VL: B1 VL with S26E, D59R
B35: H183/L072 VL S26P (antibody, name in Kabat numbering, V domains shown)
VH: B1 VH
VL: B1 VL with S26P, D59R
B36: H183/L072 VL R54N (antibody, name in Kabat numbering, V domains shown)
VH: B1 VH
VL: B1 VL with D59N
B37: H183/L072 VL R54I (antibody, name in Kabat numbering, V domains shown)
VH: B1 VH
VL: B1 VL with D59I
B38: H183/L072 VL R54M (antibody, name in Kabat numbering, V domains shown)
VH: B1 VH
VL: B1 VL with D59M
B39: H183/L072 VL S26Q (antibody, name in Kabat numbering, V domains shown)
VH: B1 VH
VL: B1 VL with S26Q, D59R
B40: H183/L072 VL S52E (antibody, name in Kabat numbering, V domains shown)
VH: B1 VH
VL: B1 VL with S57E, D59R
B41: H183/L072 VL S26D (antibody, name in Kabat numbering, V domains shown)
VH: B1 VH
VL: B1 VL with S26D, D59R
B42: H183/L072 VL R54V (antibody, name in Kabat numbering, V domains shown)
VH: B1 VH
VL: B1 VL with D59V
B43: H183/L072 VL S26N (antibody, name in Kabat numbering, V domains shown)
VH: B1 VH
VL: B1 VL with S26N, D59R
B44: H183/L072 VL R54E (antibody, name in Kabat numbering, V domains shown)
VH: B1 VH
VL: B1 VL with D59E
B45: H183/L072 VL R54K (antibody, name in Kabat numbering, V domains shown)
VH: B1 VH
VL: B1 VL with D59K

Biological target: T1, Human CD3eg linker (human)
T1 construct: Single-chain construct; also called recombinant human CD3
T1 chain: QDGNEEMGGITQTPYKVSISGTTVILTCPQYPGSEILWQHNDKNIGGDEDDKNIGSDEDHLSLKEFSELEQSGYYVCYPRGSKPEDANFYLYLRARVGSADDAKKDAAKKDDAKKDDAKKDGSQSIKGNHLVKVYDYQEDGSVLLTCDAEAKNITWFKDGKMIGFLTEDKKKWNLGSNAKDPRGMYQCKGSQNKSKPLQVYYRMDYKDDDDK
Test: SPR; fold vs parent H183/L072

In order of falling “fold change of affinity” value:
1. B10  1.9 fold
2. B32  1.9 fold
3. B27  1.7 fold
4. B38  1.7 fold
5. B45  1.7 fold
6. B12  1.6 fold
7. B13  1.6 fold
8. B2  1.5 fold
9. B26  1.5 fold
10. B33  1.5 fold
11. B4  1.4 fold
12. B14  1.4 fold
13. B17  1.4 fold
14. B20  1.4 fold
15. B30  1.4 fold
16. B23  1.3 fold
17. B37  1.3 fold
18. B5  1.2 fold
19. B21  1.2 fold
20. B31  1.2 fold
21. B22  1.1 fold
22. B42  1.1 fold
23. B16  1 fold
24. B36  1 fold
25. B40  1 fold
26. B9  0.9 fold
27. B15  0.9 fold
28. B43  0.9 fold
29. B25  0.8 fold
30. B39  0.8 fold
31. B41  0.8 fold
32. B44  0.8 fold
33. B7  0.7 fold
34. B34  0.7 fold
35. B6  0.6 fold
36. B19  0.6 fold
37. B24  0.6 fold
38. B1  0.5 fold
39. B8  0.5 fold
40. B11  0.5 fold
41. B18  0.5 fold
42. B28  0.4 fold
43. B29  0.4 fold
44. B3  0.3 fold
45. B35  0.2 fold
